Test results reported in US20240140995A1 (ROCHE DIAGNOSTICS OPERATIONS, published 2024).

B1: E. coli ColE-7 (other)
chain: ESKRNKPGKATGKGKPVNNKWLNNAGKDLGSPVPDRIANKLRDKEFKSFDDFRKKFWEEVSKDPELSKQFSRNNNDRMKVGKAPKTRTQDVSGKRTSFELHHEKPISQNGGVYDMDNISVVTPKRHIDIHRGK

How the values were obtained:
[1] = target: GthIM (Geobacillus thermoglucosidasius immunity protein, C18A, engineered), singly biotinylated (Geobacillus thermoglucosidasius); test: SPR Biacore T200, 37 C, single cycle kinetics; biotinylated immunity protein on streptavidin sensor, colicin analyte 1.1-90 nM
[2] = target: B1; test: SPR Biacore T200, 37 C, single cycle kinetics
[3] = target: B1; test: SPR Biacore T200, 37 C, single cycle kinetics; biotinylated immunity protein on streptavidin sensor, colicin analyte 1.1-90 nM

Binder	Kd [1] [nM]	koff [1] [s⁻¹]	kon [1] [M⁻¹ s⁻¹]	complex half-life t/2-diss [2] [min]	Kd [3] [pM]	MR (Molar Ratio, binding stoichiometry) [3]	koff [3] [s⁻¹]	kon [3] [M⁻¹ s⁻¹]
B1	13	0.1	1e+07	–	–	–	–	–
E. coli IM-7, singly biotinylated (other) MELKNSISDYTEAEFVQLLKEIEKENVAATDDVLDVLLEHFVKITEHPDGTDLIYYPSDNRDDSPEGIVKEIKEWRAANGKPGFKQG	–	–	–	> 1160	< 5.7	1.2	< 1e-05	1.8e+06
